Measurements from patent US20250026823A1 (MERUS N V, published 2025).
Where a chain is given by its changes, count along the chain named. Values belong to the binder of their own block, whether it stands above or below them.

What was measured:
[1] = biological target: T1, CLEC12A expressed on cells (CLEC12A-transfected CHO cells; HL60 cells) (UniProt Q5QGZ9 1-265, limits assumed); assay: cell-based or functional assay
T1 sequence (looked up): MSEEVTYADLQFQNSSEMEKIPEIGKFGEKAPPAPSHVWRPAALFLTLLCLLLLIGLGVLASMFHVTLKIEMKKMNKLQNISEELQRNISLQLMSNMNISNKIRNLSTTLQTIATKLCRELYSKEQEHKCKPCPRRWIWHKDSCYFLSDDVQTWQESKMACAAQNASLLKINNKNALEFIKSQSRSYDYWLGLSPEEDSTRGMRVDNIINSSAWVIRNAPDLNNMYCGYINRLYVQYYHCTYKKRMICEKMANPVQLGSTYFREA

[2] = biological target: T1, CLEC12A expressed on cells …; assay: flow cytometry on CLEC12A-transfected CHO cells
[3] = biological target: T2, extracellular domain of CLEC12A (amino acids 75 to 275) coupled to a His-tag (Sino Biological, cat.no. … (UniProt Q5QGZ9-1 75-275)); assay: ELISA, extracellular domain of CLEC12A coated at 2 µg/ml
T2 construct: range 75-275; Bought protein; also called coated CLEC12A; isolated extracellular domain of CLEC12A; not shown: His-tag
T2 sequence (looked up): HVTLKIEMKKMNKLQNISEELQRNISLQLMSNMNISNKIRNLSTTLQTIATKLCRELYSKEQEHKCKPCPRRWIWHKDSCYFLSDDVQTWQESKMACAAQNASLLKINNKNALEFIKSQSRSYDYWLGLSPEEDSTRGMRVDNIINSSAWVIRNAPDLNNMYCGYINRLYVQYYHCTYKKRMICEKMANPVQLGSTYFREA

[4] = biological target: T1, CLEC12A expressed on cells …; assay: flow cytometry on HL60 cells, optimized IgG concentration

lysis of HL60 cells by AML patient derived T-cells (percentage of specific lysis relative to IgG) [1]: 68%
lysis of HL60 cells by healthy donor T cells (percentage of specific lysis relative to IgG) [1]: 69%
B1: CD3XCLEC12A bsAb (3056x3116) with DM-Fc (bispecific antibody, V domains shown)
VH 1: QVQLVQSGGGVVQPGRSLRLSCVASGFTFSSYGMHWVRQAPGKGLEWVAAIWYNGRKQDYADSVKGRFTISRDNSKNTLYLQMNSLRAEDTAVYYCTRGTGYNWFDPWGQGTLVTVSS
VH 2: QVQLQESGPGLVKPSETLSLTCVVSGGSISSSNWWSWVRQPPGKGLEWIGEIYHSGSPDYNPSLKSRVTISVDKSRNQFSLKLSSVTAADTAVYYCAKVSTGGFFDYWGQGTLVTVSS
VL: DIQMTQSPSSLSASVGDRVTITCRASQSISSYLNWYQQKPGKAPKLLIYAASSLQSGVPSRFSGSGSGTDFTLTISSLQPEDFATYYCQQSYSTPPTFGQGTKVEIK

mean fluorescent intensity [2]: 282
B2: CD3 monospecific antibody (3056x3056) (antibody, V domains shown)
VH: B1 VH 1
VL: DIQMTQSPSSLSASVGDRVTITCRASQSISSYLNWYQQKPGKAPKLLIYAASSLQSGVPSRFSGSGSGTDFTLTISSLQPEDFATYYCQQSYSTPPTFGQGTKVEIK
notes: Full length bivalent monoclonal IgG; also called CD3 IgG

mean fluorescent intensity [2]: 4150
optical density [3]: 1.42
mean fluorescent intensity [4]: 1470
B3: CLEC12A monospecific antibody (3116x3116) (antibody, V domains shown)
VH: B1 VH 2
VL: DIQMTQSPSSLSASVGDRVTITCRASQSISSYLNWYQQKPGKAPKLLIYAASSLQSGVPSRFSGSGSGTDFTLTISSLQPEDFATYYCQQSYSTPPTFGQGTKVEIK
notes: Bivalent IgG; also called CLEC12A benchmark antibody; CLEC12A benchmark IgG

mean fluorescent intensity [2]: 5300
B4: candidate 3056x3116 CD3xCLEC12A bispecific IgG1 (bispecific antibody, V domains shown)
VH 1: B1 VH 1
VH 2: B1 VH 2
VL: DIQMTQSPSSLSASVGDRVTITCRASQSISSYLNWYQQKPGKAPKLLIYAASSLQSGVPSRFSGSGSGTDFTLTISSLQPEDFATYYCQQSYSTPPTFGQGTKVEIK
notes: Full length human IgG1 with wild type Fc and a common huVk1-39 light chain; The heavy chains were heterodimerised by known methods (Gunasekaran et al; WO2009/089004); also called CD3XCLEC12A WT Fc IgG1

optical density [3]: 1.31
mean fluorescent intensity [4]: 1560
B5: 4327 CLEC12A IgG (antibody, V domains shown)
VH: QVQLVQSGAEVKKPGASVKVSCKASGYTFTSYYMHWVRQAPGQGLEWMGIINPSGGSTSYAQKFQGRVTMTRDTSTSTVYMELSSLRSEDTAVYYCAKGTTGDWFDYWGQGTLVTVSS
VL: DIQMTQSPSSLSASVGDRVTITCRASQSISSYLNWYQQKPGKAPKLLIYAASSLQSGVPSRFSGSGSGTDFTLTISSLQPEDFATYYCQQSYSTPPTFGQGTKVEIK
notes: Full length human IgG1

optical density [3]: 1.33
mean fluorescent intensity [4]: 1110
B6: 4331 CLEC12A IgG (antibody, V domains shown)
VH: B5 VH with Q1E, K98R, T100N, T101Y, W104E
VL: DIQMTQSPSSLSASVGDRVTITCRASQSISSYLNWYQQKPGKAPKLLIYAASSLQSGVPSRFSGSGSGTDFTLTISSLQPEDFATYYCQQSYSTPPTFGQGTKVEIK
notes: Full length human IgG1
